Assay [1] has as its target T1, mouse PD-1 (mouse, UniProt Q02242 25-167, limits assumed).
T1 construct: also called mPD-1
T1 sequence (looked up): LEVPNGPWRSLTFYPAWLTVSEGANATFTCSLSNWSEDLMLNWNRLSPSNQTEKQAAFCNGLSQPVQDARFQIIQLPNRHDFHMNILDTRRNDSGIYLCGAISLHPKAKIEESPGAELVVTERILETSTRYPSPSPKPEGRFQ
Briefly: PD-L2-Fc format, calibrated on PD-L2(wt)-Fc.

Assay [2] has as its target T2, human PD-1 (human, UniProt Q15116 25-167, limits assumed).
T2 construct: also called hPD-1
Briefly: PD-L2-Fc format, calibrated on PD-L2(wt)-Fc.

Assay [3] deals with human IL-12 receptor complex (IL-12Rβ1, IL-12Rβ2) (human, UniProt P42701 24-662; Q99665 24-862). The experiment in a line: cell-based or functional assay.
The target of assay [4] is T3, CD4 on CD4+ T cells (UniProt P01730 26-458, limits assumed).
T3 construct: whole, on cells
Briefly: FACS. For orientation: A flow cytometer gives signals particle by particle.

As a reminder, the Kd is a measure of binding affinity in units of concentration.

Sequence of human IL-12 receptor complex (IL-12Rβ1, IL-12Rβ2) (Q99665 24-862, chain 2 of 2, other chains not shown): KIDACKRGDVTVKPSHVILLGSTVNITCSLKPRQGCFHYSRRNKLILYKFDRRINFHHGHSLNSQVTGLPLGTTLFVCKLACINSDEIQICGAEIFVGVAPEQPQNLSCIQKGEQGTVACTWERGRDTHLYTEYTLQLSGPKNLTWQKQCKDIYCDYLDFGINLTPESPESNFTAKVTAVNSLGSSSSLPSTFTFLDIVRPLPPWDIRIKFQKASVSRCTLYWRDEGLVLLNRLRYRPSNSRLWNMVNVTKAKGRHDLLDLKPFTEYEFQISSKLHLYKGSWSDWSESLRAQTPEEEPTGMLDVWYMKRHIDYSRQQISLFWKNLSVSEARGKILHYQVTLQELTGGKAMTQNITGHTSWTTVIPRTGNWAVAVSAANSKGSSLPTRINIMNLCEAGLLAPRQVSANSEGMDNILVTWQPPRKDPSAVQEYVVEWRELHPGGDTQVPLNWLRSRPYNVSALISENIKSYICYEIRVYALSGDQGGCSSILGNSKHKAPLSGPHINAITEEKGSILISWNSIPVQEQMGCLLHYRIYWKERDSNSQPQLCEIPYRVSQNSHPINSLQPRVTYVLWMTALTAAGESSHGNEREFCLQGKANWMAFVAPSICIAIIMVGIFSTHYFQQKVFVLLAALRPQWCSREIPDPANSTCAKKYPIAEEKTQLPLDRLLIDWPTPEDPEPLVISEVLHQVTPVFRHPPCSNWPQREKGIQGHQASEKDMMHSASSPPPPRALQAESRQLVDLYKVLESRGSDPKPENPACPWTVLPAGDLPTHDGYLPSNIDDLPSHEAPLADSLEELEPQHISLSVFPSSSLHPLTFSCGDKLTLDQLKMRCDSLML
T2 sequence (Q15116 25-167 limits assumed): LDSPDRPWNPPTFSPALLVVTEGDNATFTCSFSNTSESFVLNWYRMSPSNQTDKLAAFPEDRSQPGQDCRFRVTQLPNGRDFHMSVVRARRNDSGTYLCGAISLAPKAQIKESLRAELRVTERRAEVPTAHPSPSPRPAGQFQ

B1: PD-L2(mut2)-Fc (Fc fusion)
chain 1: LFTVTVPKELYIIEHGSNVTLECNFDTGSHVNLGAITAVLQKVENDTSPHRERATLLEEQLPLGKASFHIPQVQVRDEGQYQCIIIYGVAWDYKYLTLKVKASYRKINTHILKVPETDEVELTCQATGYPLAEVSWPNVSVPANTSHSRTPEGLYQVTSVLRLKPPPGRNFSCVFWNTHVRELTLASIDLQSQMEPRTHPTGGGGSGGGDKTHTCPPCPAPEDEGGPSVFLFPPKPKDTLMISRTPEVTCVVVDVSHEDPEVKFNWYVDGVEVHNAKTKPREEQYNSTYRVVSVLTVLHQDWLNGKEYKCKVSNKALPAPIEKTISKAKGQPREPQVYVYPPSREEMTKNQVSLTCLVKGFYPSDIAVEWESNGQPENNYKTTPPVLDEDGSFALVSKLTVDKSRWQQGNVFSCSVMHEALHNHYTQKSLSLSPGK
chain 2: LFTVTVPKELYIIEHGSNVTLECNFDTGSHVNLGAITAVLQKVENDTSPHRERATLLEEQLPLGKASFHIPQVQVRDEGQYQCIIIYGVAWDYKYLTLKVKASYRKINTHILKVPETDEVELTCQATGYPLAEVSWPNVSVPANTSHSRTPEGLYQVTSVLRLKPPPGRNFSCVFWNTHVRELTLASIDLQSQMEPRTHPTGGGGSGGGDKTHTCPPCPAPEKKGGPSVFLFPPKPKDTLMISRTPEVTCVVVDVSHEDPEVKFNWYVDGVEVHNAKTKPREEQYNSTYRVVSVLTVLHQDWLNGKEYKCKVSNKALPAPIEKTISKAKGQPREPQVYVLPPSREEMTKNQVSLLCLVKGFYPSDIAVEWESNGQPENRYMTWPPVLDSDGSFFLYSKLTVDKSRWQQGNVFSCSVMHEALHNHYTQKSLSLSPGK
notes: also called PD-L2(S58V)
With B1, the Kd in assay [1] is 230 nM; in assay [2] it was 350 nM.

B2: PD-L2(mut4)-Fc (Fc fusion)
chain 1: LFTVTVPKELYIIEHGSNVTLECNFDTGSHVNLGAIVAVLLKVENDTSPHRERATLLEEQLPLGKASFHIPQVQVRDEGQYQCIIIYGVAWDYKYLTLKVKASYRKINTHILKVPETDEVELTCQATGYPLAEVSWPNVSVPANTSHSRTPEGLYQVTSVLRLKPPPGRNFSCVFWNTHVRELTLASIDLQSQMEPRTHPTGGGGSGGGDKTHTCPPCPAPEDEGGPSVFLFPPKPKDTLMISRTPEVTCVVVDVSHEDPEVKFNWYVDGVEVHNAKTKPREEQYNSTYRVVSVLTVLHQDWLNGKEYKCKVSNKALPAPIEKTISKAKGQPREPQVYVYPPSREEMTKNQVSLTCLVKGFYPSDIAVEWESNGQPENNYKTTPPVLDEDGSFALVSKLTVDKSRWQQGNVFSCSVMHEALHNHYTQKSLSLSPGK
chain 2: LFTVTVPKELYIIEHGSNVTLECNFDTGSHVNLGAIVAVLLKVENDTSPHRERATLLEEQLPLGKASFHIPQVQVRDEGQYQCIIIYGVAWDYKYLTLKVKASYRKINTHILKVPETDEVELTCQATGYPLAEVSWPNVSVPANTSHSRTPEGLYQVTSVLRLKPPPGRNFSCVFWNTHVRELTLASIDLQSQMEPRTHPTGGGGSGGGDKTHTCPPCPAPEKKGGPSVFLFPPKPKDTLMISRTPEVTCVVVDVSHEDPEVKFNWYVDGVEVHNAKTKPREEQYNSTYRVVSVLTVLHQDWLNGKEYKCKVSNKALPAPIEKTISKAKGQPREPQVYVLPPSREEMTKNQVSLLCLVKGFYPSDIAVEWESNGQPENRYMTWPPVLDSDGSFFLYSKLTVDKSRWQQGNVFSCSVMHEALHNHYTQKSLSLSPGK
notes: also called PD-L2(T56V/S58V/Q60L)
On to B2, for which the figures for the Kd in assay [1] and in assay [2] were 220 nM and 255 nM, respectively.

B3: Fab-IL-12(E59A/F60A)-Fc-CD8 Ab (other)
light: DIQMTQTTSSLSASLGDRVTISCRASQDINNYLNWYQQKSDGTIKLLIYYTSRSYSGVPSRFSGSGSGTDYSLTISNRRQEDIATYFCQQGKTLPWTFGGGTKLEIKRTVAAPSVFIFPPSDEQLKSGTASVVCLLNNFYPREAKVQWKVDNALQSGNSQESVTEQDSKDSTYSLSSTLTLSKADYEKHKVYACEVTHQGLSSPVTKSFNRGEC
heavy 1: EVQLQQSGPELVKPGASVKMSCKASGYTFTDYYMKWVKQSHGKSLEWIGHINPNNDDTFYTQKFKGRATLTVDKSSSTAYMQLNSLTSEDSAVYYCVRDDYDGGWFAYWGQGTLVTVSSASTKGPSVFPLAPSSKSTSGGTAALGCLVKDYFPEPVTVSWNSGALTSGVHTFPAVLQSSGLYSLSSVVTVPSSSLGTQTYICNVNHKPSNTKVDKKVEPKSCDKTHTCPPCPAPEKKGGPSVFLFPPKPKDTLMISRTPEVTCVVVDVSHEDPEVKFNWYVDGVEVHNAKTKPREEQYNSTYRVVSVLTVLHQDWLNGKEYKCKVSNKALPAPIEKTISKAKGQPREPQVYVLPPSREEMTKNQVSLLCLVKGFYPSDIAVEWESNGQPENRYMTWPPVLDSDGSFFLYSKLTVDKSRWQQGNVFSCSVMHEALHNHYTQKSLSLSPGK
heavy 2: EVQLQQSGPELVKPGASVKMSCKASGYTFTDYYMKWVKQSHGKSLEWIGHINPNNDDTFYTQKFKGRATLTVDKSSSTAYMQLNSLTSEDSAVYYCVRDDYDGGWFAYWGQGTLVTVSSASTKGPSVFPLAPSSKSTSGGTAALGCLVKDYFPEPVTVSWNSGALTSGVHTFPAVLQSSGLYSLSSVVTVPSSSLGTQTYICNVNHKPSNTKVDKKVEPKSCDKPGSGIWELKKDVYVVELDWYPDAPGEMVVLTCDTPEEDGITWTLDQSSEVLGSGKTLTIQVKAAGDAGQYTCHKGGEVLSHSLLLLHKKEDGIWSTDILKDQKEPKNKTFLRCEAKNYSGRFTCWWLTTISTDLTFSVKSSRGSSDPQGVTCGAATLSAERVRGDNKEYEYSVECQEDSACPAAEESLPIEVMVDAVHKLKYENYTSSFFIRDIIKPDPPKNLQLKPLKNSRQVEVSWEYPDTWSTPHSYFSLTFCVQVQGKSKREKKDRVFTDKTSATVICRKNASISVRAQDRYYSSSWSEWASVPCSGGGGSGGGGSGGGGSGGGGSGRNLPVATPDPGMFPCLHHSQNLLRAVSNMLQKARQTLEFYPCTSEEIDHEDITKDKTSTVEACLPLELTKNESCLNSRETSFITNGSCLASRKTSFMMALCLSSIYEDLKMYQVEFKTMNAKLLMDPKRQIFLDQNMLAVIDELMQALNFNSETVPQKSSLEEPDFYKTKIKLCILLHAFRIRAVTIDRVMSYLNASDKTHTCPPCPAPEDEGGPSVFLFPPKPKDTLMISRTPEVTCVVVDVSHEDPEVKFNWYVDGVEVHNAKTKPREEQYNSTYRVVSVLTVLHQDWLNGKEYKCKVSNKALPAPIEKTISKAKGQPREPQVYVYPPSREEMTKNQVSLTCLVKGFYPSDIAVEWESNGQPENNYKTTPPVLDEDGSFALVSKLTVDKSRWQQGNVFSCSVMHEALHNHYTQKSLSLSPGK
With B3, in assay [3], the “IL-12 biological activity (IFN-γ release), CD4+ T cells” value was 0% and the “IL-12 biological activity (IFN-γ release), CD8+ T cells” value was 11%. For the same molecule, the binding result in assay [4] is recorded as “no binding”.

B4: Fab-IL-12(F60A)-Fc-CD8 Ab (other)
light: DIQMTQTTSSLSASLGDRVTISCRASQDINNYLNWYQQKSDGTIKLLIYYTSRSYSGVPSRFSGSGSGTDYSLTISNRRQEDIATYFCQQGKTLPWTFGGGTKLEIKRTVAAPSVFIFPPSDEQLKSGTASVVCLLNNFYPREAKVQWKVDNALQSGNSQESVTEQDSKDSTYSLSSTLTLSKADYEKHKVYACEVTHQGLSSPVTKSFNRGEC
heavy 1: EVQLQQSGPELVKPGASVKMSCKASGYTFTDYYMKWVKQSHGKSLEWIGHINPNNDDTFYTQKFKGRATLTVDKSSSTAYMQLNSLTSEDSAVYYCVRDDYDGGWFAYWGQGTLVTVSSASTKGPSVFPLAPSSKSTSGGTAALGCLVKDYFPEPVTVSWNSGALTSGVHTFPAVLQSSGLYSLSSVVTVPSSSLGTQTYICNVNHKPSNTKVDKKVEPKSCDKTHTCPPCPAPEKKGGPSVFLFPPKPKDTLMISRTPEVTCVVVDVSHEDPEVKFNWYVDGVEVHNAKTKPREEQYNSTYRVVSVLTVLHQDWLNGKEYKCKVSNKALPAPIEKTISKAKGQPREPQVYVLPPSREEMTKNQVSLLCLVKGFYPSDIAVEWESNGQPENRYMTWPPVLDSDGSFFLYSKLTVDKSRWQQGNVFSCSVMHEALHNHYTQKSLSLSPGK
heavy 2: EVQLQQSGPELVKPGASVKMSCKASGYTFTDYYMKWVKQSHGKSLEWIGHINPNNDDTFYTQKFKGRATLTVDKSSSTAYMQLNSLTSEDSAVYYCVRDDYDGGWFAYWGQGTLVTVSSASTKGPSVFPLAPSSKSTSGGTAALGCLVKDYFPEPVTVSWNSGALTSGVHTFPAVLQSSGLYSLSSVVTVPSSSLGTQTYICNVNHKPSNTKVDKKVEPKSCDKPGSGIWELKKDVYVVELDWYPDAPGEMVVLTCDTPEEDGITWTLDQSSEVLGSGKTLTIQVKEAGDAGQYTCHKGGEVLSHSLLLLHKKEDGIWSTDILKDQKEPKNKTFLRCEAKNYSGRFTCWWLTTISTDLTFSVKSSRGSSDPQGVTCGAATLSAERVRGDNKEYEYSVECQEDSACPAAEESLPIEVMVDAVHKLKYENYTSSFFIRDIIKPDPPKNLQLKPLKNSRQVEVSWEYPDTWSTPHSYFSLTFCVQVQGKSKREKKDRVFTDKTSATVICRKNASISVRAQDRYYSSSWSEWASVPCSGGGGSGGGGSGGGGSGGGGSGRNLPVATPDPGMFPCLHHSQNLLRAVSNMLQKARQTLEFYPCTSEEIDHEDITKDKTSTVEACLPLELTKNESCLNSRETSFITNGSCLASRKTSFMMALCLSSIYEDLKMYQVEFKTMNAKLLMDPKRQIFLDQNMLAVIDELMQALNFNSETVPQKSSLEEPDFYKTKIKLCILLHAFRIRAVTIDRVMSYLNASDKTHTCPPCPAPEDEGGPSVFLFPPKPKDTLMISRTPEVTCVVVDVSHEDPEVKFNWYVDGVEVHNAKTKPREEQYNSTYRVVSVLTVLHQDWLNGKEYKCKVSNKALPAPIEKTISKAKGQPREPQVYVYPPSREEMTKNQVSLTCLVKGFYPSDIAVEWESNGQPENNYKTTPPVLDEDGSFALVSKLTVDKSRWQQGNVFSCSVMHEALHNHYTQKSLSLSPGK
notes: copies: 2 + 1 + 1
As to B4, in assay [3], the “IL-12 biological activity (IFN-γ release), CD4+ T cells” value is 1.2% and the “IL-12 biological activity (IFN-γ release), CD8+ T cells” value came to 21.9%. In assay [4], the binding result is “no binding”.

The values above are taken from patent US20240190962A1 (IMMUNOWAKE, published 2024).
